# From publication PMC5324060, “Evolutionary, computational, and biochemical studies of the salicylaldehyde dehydrogenases in the naphthalene degradation pathway” (Scientific Reports, 2017)
# B1: Salicylaldehyde dehydrogenase from Alteromonas naphthalenivorans (SALDan) (enzyme, UniProt F5Z5S7 1-483, looked up)
# chain: MKTQLIINNKFVDSESTNTFERYNQTLGEVVTSAAAASVADANNAAEVAQEAFKSWSKTGPTERRNVLLKAADILESKTAEFIDVMAKEVGSSGLWAGFNVMLAANVFREAASLATQIQGETIPTDKPGTLSMTIREPVGVILSIAPWNGPIVLAARAIAYPIVCGNSVVFKASEVSPKTHSLVVEAVIEAGLPAGVLNLLSNKPEDGESIVNALIEHKAVRRINFTGSTHVGRIIAQKAGYHLKRCLLELGGKSPQVILDDANLKEAAKAATFGSFLYQGQICMTTGRIIVDESVADEFGEIFAKLASKLPVGNPCDNNDCIVGPVVTQSSAERLNGYIDDALSKGAKLITGGKANGTVMKPTILDHVTSDMEIYHEESFGPLICMVRVKNADEALHTANDTPYGLSAAVFGKDVNRALQMAKDINAGHCHVNGTTVQNDAQAPYGGTKDSGWGRFDGRAVIDEFTELKWITIEPIVQDYPF
# notes: Salicylaldehyde dehydrogenase (EC 1.2.1.65) of Alteromonas naphthalenivorans, UniProt F5Z5S7; amplified from genomic DNA with primers from the ATG start codon to the stop codon; about 53 kDa on SDS-PAGE; Cloned between BamHI and HindIII of pET28a; also called SAL dehydrogenase; WT; source: E. coli BL21 (DE3), pET28a, purified (Ni-NTA column)
# Tests used:
# [1] = substrate: NC(=O)c1ccc[n+]([C@@H]2O[C@H](COP(=O)([O-])OP(=O)(O)OC[C@H]3O[C@@H](n4cnc5c(N)ncnc54)[C@H](O)[C@@H]3O)[C@@H](O)[C@H]2O)c1; assay: Kinetics assay of wild-type recombinant SALDan (NADH appearance at 340 nm); type: biochemical, Alteromonas naphthalenivorans; details: other: wild-type; aldehyde varied at NAD^+ 100 μM, enzyme 0.1 μM; for NAD^+: SAL fixed 50 μM, NAD^+ 0–500 μM; 45.0 °C
# [2] = substrate: O=CCCCC=O; assay: as above; type: biochemical, Alteromonas naphthalenivorans; details: other: wild-type; aldehyde varied at NAD^+ 100 μM, enzyme 0.1 μM; for NAD^+: SAL fixed 50 μM, NAD^+ 0–500 μM; 45.0 °C
# [3] = substrate: O=Cc1ccc2ccccc2c1; assay: as above; type: biochemical, Alteromonas naphthalenivorans; details: other: wild-type; aldehyde varied at NAD^+ 100 μM, enzyme 0.1 μM; for NAD^+: SAL fixed 50 μM, NAD^+ 0–500 μM; 45.0 °C
# [4] = substrate: O=Cc1ccccc1Cl; assay: as above; type: biochemical, Alteromonas naphthalenivorans; details: other: wild-type; aldehyde varied at NAD^+ 100 μM, enzyme 0.1 μM; for NAD^+: SAL fixed 50 μM, NAD^+ 0–500 μM; 45.0 °C
# [5] = substrate: O=Cc1ccccc1O; assay: as above; type: biochemical, Alteromonas naphthalenivorans; details: other: wild-type; aldehyde varied at NAD^+ 100 μM, enzyme 0.1 μM; for NAD^+: SAL fixed 50 μM, NAD^+ 0–500 μM; 45.0 °C
# [6] = substrate: O=Cc1ccc(Cl)cc1; assay: purified protein, by the assay type; details: other: wild-type; aldehyde varied at NAD^+ 100 μM, enzyme 0.1 μM; for NAD^+: SAL fixed 50 μM, NAD^+ 0–500 μM; 45.0 °C
# [7] = substrate: O=Cc1ccc([N+](=O)[O-])cc1; assay: purified protein, by the assay type; details: other: wild-type; aldehyde varied at NAD^+ 100 μM, enzyme 0.1 μM; for NAD^+: SAL fixed 50 μM, NAD^+ 0–500 μM; 45.0 °C
# [8] = substrate: O=Cc1cccc(Cl)c1; assay: purified protein, by the assay type; details: other: wild-type; aldehyde varied at NAD^+ 100 μM, enzyme 0.1 μM; for NAD^+: SAL fixed 50 μM, NAD^+ 0–500 μM; 45.0 °C
# [9] = target: the molecule itself; assay: cross-linking; purified SALDan (0.5 mg/ml) with 0.1% aldehyde for various periods at 25 °C, quenched with 1 M Tris-HCl, SDS-PAGE and Coomassie staining
# [10] = target: the molecule itself; assay: SEC; purified SALDan on a Superdex 200 10/300 GL column, against standards ferritin, catalase, alcohol dehydrogenase, albumin, ovalbumin; one peak at approximately 160 kDa (monomer approximately 53 kDa)
protein,measurement,setting,value
B1,Km,[1],39.5 ± 3.2 µM
same,Vmax,[1],94.1 µmol/min/mg
same,kcat,[1],234 ± 24.2 s⁻¹
same,kcat/Km,[1],5.9e+06 ± 500000 M⁻¹ s⁻¹
same,Km,[2],560 ± 46.0 µM
same,Vmax,[2],11.6 µmol/min/mg
same,kcat,[2],29.6 ± 3.7 s⁻¹
same,kcat/Km,[2],53000 M⁻¹ s⁻¹
same,Km,[3],3.4 ± 0.5 µM
same,Vmax,[3],61.4 µmol/min/mg
same,kcat,[3],153 ± 14.4 s⁻¹
same,kcat/Km,[3],4.5e+07 ± 4.4e+06 M⁻¹ s⁻¹
same,Km,[4],3.2 ± 0.3 µM
same,Vmax,[4],45.6 µmol/min/mg
same,kcat,[4],114 ± 17.2 s⁻¹
same,kcat/Km,[4],3.57e+07 ± 4.5e+06 M⁻¹ s⁻¹
same,Km,[5],3.8 ± 0.5 µM
same,Vmax,[5],49.5 µmol/min/mg
same,kcat,[5],124 ± 13.6 s⁻¹
same,kcat/Km,[5],3.25e+07 ± 4.2e+06 M⁻¹ s⁻¹
same,Km,[6],5.5 ± 1.1 µM
same,Vmax,[6],74.2 µmol/min/mg
same,kcat,[6],186 s⁻¹
same,kcat/Km,[6],3.37e+07 M⁻¹ s⁻¹
same,Km,[7],6.5 ± 0.9 µM
same,Vmax,[7],32.3 µmol/min/mg
same,kcat,[7],80.2 s⁻¹
same,kcat/Km,[7],1.23e+07 M⁻¹ s⁻¹
same,Km,[8],4.8 ± 0.7 µM
same,Vmax,[8],56.8 µmol/min/mg
same,kcat,[8],142 s⁻¹
same,kcat/Km,[8],2.96e+07 M⁻¹ s⁻¹
same,stoichiometry N,[9],3
same,stoichiometry N,[10],3 subunits
